The record followed here is patent publication US8409836B2, “Treatment of cellulosic material and enzymes useful therein” (Roal Oy, priority 2005, dated 2013).

Data set [1] in a line: Xylanase activity on birch xylan. The format is biochemical. In outline:
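Xylanase activity measured on birch glucuronoxylan by the IUPAC 1987 standard procedure, using enzyme purified from Acremonium thermophilum ALKO4245 or Thermoascus aurantiacus ALKO4242 culture supernatant. Protein determined by dye-binding assay against a bovine serum albumin standard.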

The nature of data set [2]: Isoelectric focusing (PhastSystem), pI of purified protein. The format is physicochemical. The conditions noted are these: IEF gel. As for the experimental part: The sample was dissolved in water and applied to a Superdex 75 HR 10/30 gel filtration column equilibrated with 20 mM sodium phosphate pH 6.0, containing 0.15 M NaCl. Fractions were collected and those containing endoglucanase activity were combined. The protein eluate was judged to be pure by SDS-polyacrylamide gel electrophoresis and the molecular mass was evaluated on the basis of molecular mass standards (prestained SDS-PAGE standards, Broad Range, Bio-Rad) to be 54 kDa. The pI of the purified protein, designated as Ct EG—54 was determined with PhastSystem (Pharmacia) to be ca 5.5.
The sample was applied to a Sephacryl S-100 HR 26/60 gel filtration column equilibrated with 50 mM sodium acetate buffer pH 5.0, containing 0.05 M NaCl. The protein fraction containing endoglucanase activity was eluted from the column with a retention volume corresponding to a molecular weight of 16 kDa. Collected fractions were combined, concentrated and gel filtration was repeated. The protein eluate was judged to be pure by SDS-polyacryl amide gel electrophoresis and the molecular weight was evaluated to be 28 kDa. The pI of the purified protein, designated as Ta EG—28, was determined in an IEF gel (PhastSystem, Pharmacia) to be about 3.5. The specific activity of Ta EG—28 at 50° C. was determined to be 4290 nkat/mg (procedure of IUPAC 1987, using CMC as substrate).
The active material from the anion exchange chromatography was applied to a Sephacryl S-300 HR 26/60 column equilibrated with 20 mM sodium phosphate pH 6.5, containing 0.15 M NaCl. The protein with β-glucosidase activity was eluted with a retention volume corresponding to a molecular weight of 243 kDa. The protein was judged to be pure by SDS-polyacrylamide gel electrophoresis and the molecular weight was evaluated to be 101 kDa. The pI of the purified protein, designated as At βG—101, was determined in an IEF gel (PhastSystem, Pharmacia) to be in the area of 5.6-4.9. The specific activity of At βG—101 at 50° C. was determined to be 1100 nkat/mg (using 4-nitrophenyl-β-D-glucopyranoside as substrate, Bailey and Linko, 1990).
The active material from the cation exchange chromatography was applied to a Sephacryl S-300 HR 26/60 column equilibrated with 20 mM sodium phosphate pH 7.0, containing 0.15 M NaCl. The protein with β-glucosidase activity was eluted with a retention volume corresponding to a molecular weight of 294 kDa. […] The protein was judged to be pure by SDS-polyacrylamide gel electrophoresis and the molecular weight was evaluated to be 81 kDa, representing most likely the monomeric form of the protein. […] The specific activity of the purified protein, designated as Ta βG—81, at 50° C. was determined to be 600 nkat/mg using 4-nitrophenyl-β-D-glucopyranoside as substrate (Bailey and Linko, 1990). […]

A short description of data set [3]: pH optimum of heterologously produced xylanase. In kind it is biochemical. The conditions noted are these: McIlvaine's buffer, pH range 3.0-8.0, birch xylan. As for the experimental part:
(§1) Thermoascus XYN—30/Xyn10A was produced in T. reesei and the pH optimum of the heterologously produced protein was determined in the universal McIlvaine's buffer within a pH range of 3.0-8.0 using birch xylan as substrate (FIG. 8A). The optimal pH was determined to be 4.5. The temperature optimum for the enzymatic activity of XYN—30 was determined to be 75° C. (FIG. 8B).

The nature of data set [4]: Temperature optimum of heterologously produced xylanase. The conditions noted are these: pH 5.3, 60 min reaction. In kind it is biochemical. The procedure:
as §1

Data set [5] can be described thus: β-glucosidase activity on 4-nitrophenyl-β-D-glucopyranoside. The format is biochemical. As for the experimental part: Acremonium Thermophilum ALKO4245 was grown as described in Example 1. The pure β-glucosidase was obtained by sequential purification with hydrophobic interaction and anion exchange chromatography followed by gel filtration. The β-glucosidase activity of the fractions collected during purification was determined using 4-nitrophenyl-β-D-glucopyranoside as substrate (Bailey and Linko, 1990). Protein content was measured by BioRad Assay Kit (Bio-Rad Laboratories) using bovine serum albumine as standard.
Thermoascus aurantiacus ALKO4242 was grown as described in Example 1. The pure β-glucosidase was obtained by sequential purification with hydrophobic interaction, anion and cation exchange chromatography followed by gel filtration. The β-glucosidase activity of the fractions collected during purification was determined using 4-nitrophenyl-β-D-glucopyranoside as substrate (Bailey and Linko, 1990). Protein content was measured by BioRad Assay Kit (Bio-Rad Laboratories) using bovine serum albumine as standard.

The nature of data set [6]: Thermal stability of purified β-glucosidase. In kind it is biochemical. The conditions noted are these: 0.1 mg/ml BSA, pH 5.0, 60 min, 4-nitrophenyl-β-D-glucopyranoside. The procedure: Thermal stability of the purified β-glucosidase was determined at different temperatures. The reaction was performed in the presence of 0.1 mg/ml BSA at pH 5.0 for 60 min using 4-nitrophenyl-β-D-glucopyranoside as substrate. A. thermophilum βG—101 was stable up to 70° C. The Aspergillus reference enzyme (Novozym 188) retained 100% of activity up to 60°.
Thermal stability of the purified β-glucosidase was determined at different temperatures. The reaction was performed in the presence of 0.1 mg/ml BSA at pH 5.0 for 60 min using 4-nitrophenyl-β-D-glucopyranoside as substrate. T. aurantiacus βG—81 was stable up to 75° C. The Aspergillus reference enzyme (Novozym 188) retained 100% of activity up to 60° C.

Data set [7] in a line: pH optimum of heterologously produced β-glucosidases. In kind it is biochemical. The following applies: McIlvaine's buffer, pH range 3.0-8.0, 4-nitrophenyl-β-D-glucopyranoside. As for the experimental part:
(§2) The pH optimum of the heterologously produced β-glucosidases was determined in the universal McIlvaine's buffer within a pH range of 3.0-8.0 using 4-nitrophenyl-β-D-glucopyranoside as substrate. The pH optima for the Acremonium βG—101, Chaetomium βG—76, and Thermoascus βG—81 are pH 4.5, 5.5, and 4.5, respectively (FIG. 7 A). The optimal temperature for enzymatic activity of these β-glucosidases was determined at the temperature range of 50-85° C. as described above. The highest activity of the enzymes was determined to be at 70° C., 65° C., and 75° C. for the Acremonium βG—101/Cel3A, Chaetomium βG—76/Cel3A, and Thermoascus βG—81/Cel3A, respectively (FIG. 7 B).

Data set [8] can be described thus: Temperature optimum of heterologously produced β-glucosidases. In kind it is biochemical. The conditions noted are these: temperature range 50-85° C., 60 min. As for the experimental part: as §2
For data set [9], the system named is Trichoderma-strains (A47 and Rut-C30). The experiment in a line: Cellulase induction on βG_81 pretreated Nutriose in shake flask cultivation. In kind it is cell-based. The conditions noted are these: 7 days shake flask cultivation. As for the experimental part: A high concentration starch hydrolysate mixture (Nutriose 74/968, Roquette) was treated with Thermoascus aurantiacus βG—81/Cel3A enriched enzyme preparation produced as described in Example 21 to produce a sugar mixture containing appreciable amounts of cellulase inducer (sophorose) to overcome the glucose repression.
The Ta βG—81/Cel3A enriched enzyme preparation was added to a 70% (w/w) Nutriose solution to a final concentration of 1 g total protein/liter. The container of the mixture was incubated in a water bath at 65° C. for 3 days with constant stirring and used as a carbon source in a shake flask medium for two different Trichoderma-strains (A47 and Rut-C30). The effect of the enzyme treatment was measured as an endoglucanase activity formed during a 7 days shake flask cultivation. As a reference cultivations were performed under the same conditions with untreated Nutriose as a carbon source.

Where “and” joins values, the source holds several entries; their conditions need not be identical. Equal values may be shown once. A value given as a limit tells only on which side of the number the result lay.

Take “Ta XYN_30: xylanase of Thermoascus aurantiacus ALKO4242, gene Ta xyn10A, amino acid SEQ ID NO: 18”: the “Xylanase activity of the preparation” value in data set [1] (assayed according to Bailey et al., 1992) is on record as 132 000 nkat/ml. For the same molecule, the “Specific activity on birch xylan” value in data set [1] (purified xylanase, 50° C., procedure of IUPAC 1987) amounted to 4800 nkat/mg. Further, in data set [2], the “pI of the purified protein” value was “ca. 6.8”. This molecule came in with a pH optimum in data set [3] of 4.5. In [4], the Temperature optimum was 75 °C.

B1: Ta βG_81: beta-glucosidase of Thermoascus aurantiacus ALKO4242, gene Ta cel3A, amino acid SEQ ID NO: 22 (protein)
chain: MRLGWLELAVAAAATVASAKDDLAYSPPFYPSPWMNGNGEWAEAYRRAVDFVSQLTLAEKVNLTTGVGWMQEKCVGETGSIPRLGFRGLCLQDSPLGVRFADYVSAFPAGVNVAATWDKNLAYLRGKAMGEEHRGKGVDVQLGPVAGPLGRHPDGGRNWEGFSPDPVLTGVLMAETIKGIQDAGVIACAKHFIGNEMEHFRQAGEAVGYGFDITESVSSNIDDKTLHELYLWPFADAVRAGVGSFMCSYNQVNNSYSCSNSYLLNKLLKSELDFQGFVMSDWGAHHSGVGAALAGLDMSMPGDTAFGTGKSFWGTNLTIAVLNGTVPEWRVDDMAVRIMAAFYKVGRDRYQVPVNFDSWTKDEYGYEHALVGQNYVKVNDKVDVRADHADIIRQIGSASVVLLKNDGGLPLTGYEKFTGVFGEDAGSNRWGADGCSDRGCDNGTLAMGWGSGTADFPYLVTPEQAIQNEILSKGKGLDSVSIVFVNADSGEGYINVDGNEGDRKNLTLWKGGEEVIKTVAANCNNTIVVMHTVGPVLIDEWYDNPNVTAIVWAGLPGQESGNSLVDVLYGRVSPGGKTPFTWGKTRESYGAPLLTKPNNGKGAPQDDFTEGVFIDYRRFDKYNETPIYEFGFGLSYTTFEYSNIYVQPLNARPYTPASGSTKAAPTFGNISTDYADYLYPEDIHKVPLYIYPWLNTTDPEEVLRRSRLTEMKAEDYIPSGATDGSPQPILPAGGAPGGNPGLYDEMYRVSAIITNTGNVVGDEVPQLYVSLGGPDDPKVVLRNFDRITLHPGQQTMWTTTLTRRDISNWDPASQNWVVTKYPKTVYIGSSSRKLHLQAPLPPY
Turning to B1, the “β-glucosidase activity of the preparation” value in data set [5] (according to Bailey and Linko, 1990, listed as Ta βG—81/Cel3A) was 6270 nkat/ml and 11500 nkat/ml. Moreover, the “Specific activity on 4-nitrophenyl-β-D-glucopyranoside” value in data set [5] (purified β-glucosidase, 50° C.) is recorded as 600 nkat/mg. Moreover, the “Thermal stability: temperature up to which stable / 100% of activity retained” value in [6] is “up to 75 °C”. Further, the “pI of the purified protein” value in data set [2] is > 5.85 and 4.55. Moreover, the pH optimum in [7] is recorded as 4.5. Moreover, in [8], the “Temperature of highest activity” value was 75 °C. Further, the “Endoglucanase activity formed on pretreated Nutriose versus untreated Nutriose” value in [9] is “More than two-fold increase”.
